Measurements as given in the DeepSol protein solubility set.

Assay: soluble on expression in E. coli; label from the status in PepcDB or PDB records

| Sequence | soluble on expression in E. coli |
| --- | --- |
| MLTLITFPKAFGLYSASPFCVKAAYLLTLAGEPWQRQDQTDPRRMPHGKLPVLRTPERLVPDSDGIRAWLESRGAEFDRGLTDAQRASARALIHMAEDHFYPYLVLDRWGNDAVWAIIRDTFFGEIPRLLRKPVTNRIRAQVLRGLDFQGMARFSEAERRDRVERSFEAVTALLWQKPFLFGDAPTGADLSVAPMLAAMRATPVATPLQRRVAGDRVLSDYIDRMDATLPLT | not soluble |
| MSYEDWAGGIRCSECGREYTGIECPICRQADPTEREVVTEHGNGRGDQQPPENGTVSADSGVYDIDKIEHERHTDAEKVNPEVVDPSDYVTRAVSGVVFNKRHAWKAENRADEDNPPSLFVVTTADSEFNWIEIPLWDDAEGAMEDISIGDPIQAEGKLSKDNGVHNIHVHSQDSIDILTEPPEVKFDSMAIDQITSTTPKVDLEGTVERVGEIKDIQLDDEKVKLREIHVSDLNNDQIQVALWRTNAYEKVAPGDEIIIAGGLAKPHNEKVVVRVGWSGHIGYRSSLEHHHHHH | not soluble |
| MLERTQVFVDTSYLLASFYNSWETGARAQLEIDLPEVVGVLGRMIEQQLKQPVQRQMWYDGIPDSGPHRYQRALRTCDGVQLRAGQLIEWGERRTQKAVDTRLVADLVLAGVRGQCSDIVLVSGDADMIPGVQEAANAGLRVHLYGFGWDSMSSQLRHCCDTTTILDPREDFAECMQLQVLEGPLPPVVRVKPINDAEPIEDLDFTPVPGVASPFEEVSAKDEKFSPRPSEPAEALSEQVCEAQYEISKHEGQTADSGEITESFEAAEIKVTEFFGEPAAPVAESGVEAPTPEAPTVPEAAKPTPAKPKTPKAEPQKQESPKPGTPKPKAPSPADIPPKAPADTEEHSEVEAEIEDSRPKIPSPSMMAPRRKLRSRYVPLPNEVWATAGFQTPYDVGQQYASWWFENAATSTQRDQAHLLSGGGLPPEIDRPLLQFACETLHEYTLTEAQRVALRDGFHSGIRGVLLNQRDS | soluble |
| MAHHHHHHMSTSTTHVQKETILSLNYYEIFSLDPSARDVDFGSVHRAYRRFALLFHPDKDPSPAARAAFERVKLAAETLTDPQMRREYDEELLQKLQRSTGTGATSAWQRQQRDVMEEEALAADMILRQKEAATAAKAAAKREEELEKEAAAKQMLHELTNALTTPFKRMEEELVHEWEIDEDLLSMKEKEVESLLQKLREYNEGQGRHGRSVDAHTCGTKRRRSEEETASKV | soluble |
| MNNSAEYFIKSLNMTAHPEGGYFKESFISPSKLAPNTLHINEERLLWTSIYFLLRTGEVSNFHRLKSDEMWYFHAGESLTIYMISPNGELIEKQLGLNIEKGETPQVLVPKDYIFGSAMNNEGFSLVGCMVAPGFDFKDFELFEREDLLEKYPKYKEVIEKLTRLEHHHHHH | not soluble |
| MLSKTNQNIFTVSRLNAEVRLLLENEMGIVWLVGEISNFSAPVSGHWYLTLKDSRAQVKCAMFRGNNRRVTFKPANGNQVLVKARLSLYEPRGDYQLIIESMQPEGDGRLQQEFEELKMKLAAEGLFAQTNKLPLPEHPKRVGIITSKTGAALYDILDVLKRRDPSLPVVIYPTMVQGDDAAIQIAQAIGRANSRNECDVLIVGRGGGSLEDLWCFNNEILARTIAASQIPIISAVGHEVDMTIADFVADVRAPTPSAAAELVSRDNSHKDQSLVAKQHKLASAMRYYLSQQKQQSAQLLHRLERQHPSYQLQRQSQQLDELDMRLRRAMQRFIDTRQQAVERKHHRLQLNSPVKHLAQQKSRLERVEHKLLDTMDRKLLTMRHQLAIAAEKLDTVSPLATLKRGYSITQTEQGKVVTSADDVKTGDLLVTRLANGEIHSTVS | not soluble |
| MVKTGIEDVCGHWGHNFWRDKFKKFDDKYLRNVLIRENQPKSSIVSLYKKLEIKHAIEMAETGMISTVPTFASLNDCREEKIRKVTSSETDEIRELLSRNLYQIRQRTLSYNRHSLTADTSERQAKEILIRRRHSLRESIRKDSSLNREHRASTSTSRYLSLPKNTKLPEKLQKRRTISIADGNSSSSDAHAGTTVLNLLEHHHHHH | not soluble |
| MSTFRLITGGIGTGKTLWTVEQLFKLKNLTPDRLVYTDITGIKHTGVTVVPPDFDWRNVEDNSLIIFDEVQYKELFSRHNSKRDKQILDLTTMRKRGIEIWCITQRARFLNQDVLGLVNEHIHLEKTGDKTARVYIWHEAETNITKTKKMFPFEKYVWQHPTDLYGFYESIKPDA | not soluble |
| MAHPLDLNQLAQHIKQWGQSLGFQQVGICDTDLTAEEPRLQAWLDKQYHGEMAWMARHGMLRARPHELLPGTLRVISVRMNYLPAKAAFASTLNNPELGYVSRYALGRDYHKLLRQRLKKLGDQIQHYCLEQNNLDRHDLELHDLEQHDSERQGQPEQHTASEINFRPFVDSAPIMERSLAAKAGIGWVGKHSLILNRDAGSWFFLGELLIDLPLPVDKPQEEQCGRCVACMTTCPTGAIVAPYTVDARRCISYLTIELEGAIPEEFRPLMGNRIYGCDDCQLICPWNRFSQLTDEDDFSPRAVLHTPQLLDLFAWNEEKFLRVTEGSAIRRIGHLRWLRNISVALGNAPYLDSIVLALETRRGLHPMLDEHIEWAISQQLARRATQAVEVQLPQKKRLIRAIEKGLPRDA | not soluble |
| MGSDKIHHHHHHMLVGREKELHLLHDIQNDDSSHFVAVYGRMREGKTFLIREAFGYRFTFQHAGLSEGGMKEQIYAFTSSLKDAGYEVKKQPQNWLEAFEALKDVIRLSSEKKKIIFIDELSWMDTQKSDLMVALENFWNGFASARKDIVLIVCASATSWMLSKVVHNKGGLYNRLTEQIHLRTFCLRECEAYVKAAGLALNRNQILQYYMIFGGVPYYWGFLKKGLSLSQNIDSILFEKDAPLRDEFKYLYASVFKKPENYVKIIEALGTKKVGMTREEIITSTKIPNSGDLTTKLEELESCGFIRKYNAFGMKKKNAIYQLMDCFTLFYFKFLKSEPTDEHFWTNQINTPAVNTWLGLAFERVCMEHVDQIKFKLGISGVLTEINSWYCKSDPDNGIFGSQIDMLIARKDQVINLCEMKYSQSEYTITEKVDRSIRNKISDLRVVSGTKYAIYPTLITTYGVVENSYSQELQSVVTMDDLFA | not soluble |
| MGDVSKLSSNQVKLLETAFRDFETPEGSGRVSTDQIGIILEVLGIQQTKSTIRQLIDEFDPFGNGDIDFDSFKIIGARFLGEEVNPEQMQQELREAFRLYDKEGNGYISTDVMREILAELDETLSSEDLDAMIDEIDADGSGTVDFEEFMGVMTGGDE | soluble |
| MKKIKTISTLVAGLGIAFLGHTTHADAAENNNQQQSTHNYSTTEVSFSNSGNLYTSGQCTWYVYDKTGGKIGSTWGNANSWATAAQAAGFTVNNTPEEGAIMQSSEGAFGHVAFVESVNNDGSITVSEMNYDGGPFAISTRTISASEASSYNYIHLNLEHHHHHH | not soluble |
| MGSDKIHHHHHHMILMKSYYRLLGHYYLLLRFFKNLRDLGVSLLELENILGVIYWYLFKQKYSTRCRCCSELYINQTNINPYYFASACKLKKMGLPVEIRNSVFYYDGLEVYPTVIPYIARVIKYNWQVFNMKGNPMISFTVKNHDFKAVLLKGYEGLLQFYEQFILEQYGMFDYKDKTVIDIGGFIGDTALYFYSKEARKIVSFEPSKKNYTILIKNITLNNIKNVIPINAGVWDENTKGIITNPAPTAYRVKEESKGDVALVSILDIIDSYRPDIIKMDCEGCEYKVFEKLLETGYIYDVPEYVFEAHGNIKNELLSKLRSLDEFRLCVHSDLGNMAIVSLKKL | not soluble |
| MQQLKKIGFNEYEAKSYVSLVKQGPVTAYQVSKDSGVPRARIYEILGNLVEKGIVMKEEINDTTRYSPLPVEIFLQKAQSEWQSTYEGISDSLKKLETSEEKTDNRVITLKDNQTIISYCQALIKKAERRIVISMWDEMYEALKEDLSEVTDKVTIQGITLHVENPIKNLEAHRITPYTETLSTEHWFIVSIDSKEMIYGPSLAERNIAFYTDDPVHIYLLEDYVWHDVLVNRLVRRNQDDLQQWITAERKSFFMGK | not soluble |
| AAVLTQDKNTPTYGPANGKVTVIEFFDYQCVYCSRLAPVMEQVIKAHPQTRFAFKEWPIFGGRWESSLEAAKTGLQIYQQKGADAYLAYHNGIYATGHNEGKLTTADIQQQAKKAGFDAKKAADVEPVLQSINDLAQEIGLSGTPGVIVMPTTGATEASITVFPGLADKASLEAAIKKAGG | not soluble |
| AGHILLLEEEDEAATVVCEMLTAAGFKVIWLVDGSTALDQLDLLQPIVILMAWPPPDQSCLLLLQHLREHQADPHPPLVLFLGEPPVDPLLTAQASAILSKPLDPQLLLTTLQGLCPPN | soluble |
